For assay [1], the target named is T1, cynomolgus SIRPα on cells (cynomolgus, UniProt P78324 31-373 (human entry)).
T1 construct: also called cyno SIRPα-CHO; Cyno SIRPα-CHO-K1; not shown: Transmembrane and cytoplasmic region of cynomolgus SIRPα
T1 chain: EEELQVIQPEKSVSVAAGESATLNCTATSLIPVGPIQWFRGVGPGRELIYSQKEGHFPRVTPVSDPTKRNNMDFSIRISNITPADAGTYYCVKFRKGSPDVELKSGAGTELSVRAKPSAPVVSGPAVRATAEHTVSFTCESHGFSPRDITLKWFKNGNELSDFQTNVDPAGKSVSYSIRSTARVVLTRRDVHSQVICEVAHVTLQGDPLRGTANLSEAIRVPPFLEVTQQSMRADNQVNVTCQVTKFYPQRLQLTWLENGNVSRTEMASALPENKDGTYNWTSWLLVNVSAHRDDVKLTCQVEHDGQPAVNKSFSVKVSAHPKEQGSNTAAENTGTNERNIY
Nature of the assay: cell binding, Cyno SIRPα-CHO-K1 cells, 100 nM antibody.

In another assay the target is T2, human SIRPα on cells (human, UniProt P78324 31-504).
T2 construct: whole, on cells; also called human SIRPα-CHO; Hu SIRPα-CHO-K1
Nature of the assay: cell binding, Hu SIRPα-CHO-K1 cells, 100 nM antibody.

The target in assay [2] is T3, human SIRPα v2-Fc (SIRPα2 extracellular domain fused to human IGHG1_Fc) (human, UniProt P78324 31-373; P0DOX5 223-449 = IgG part).
T3 construct: as m38; also called V2 (e.g. SIRPα2); SIRPα V2:ESE
As to the kind of experiment: BLI Octet, antigen-Fc on biosensor.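 Also: antigen captured on the biosensor tip and then immersed in solutions of the test antibodies, which act as the analyte.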

For another assay, the target named is T4, human SIRPβ-Fc (human).
T4 construct: a signal peptide may be part of the entry
As to the kind of experiment: BLI Octet, antigen-Fc on biosensor.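 Also: antigen captured on the biosensor tip and then immersed in solutions of the test antibodies, which act as the analyte.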

Assay [3] addresses T5, human SIRPα v5-Fc (SIRPα5 extracellular domain fused to human IGHG1_Fc) (human, UniProt P78324 31-373; P0DOX5 223-449 = IgG part).
T5 construct: as m38; also called V5 (e.g. SIRPα5)
As to the kind of experiment: BLI Octet, antigen-Fc on biosensor.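 Also: antigen captured on the biosensor tip and then immersed in solutions of the test antibodies, which act as the analyte.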

Assay [4] concerns the target T6, human SIRPα v3-Fc (SIRPα3 extracellular domain fused to human IGHG1_Fc) (human, UniProt P78324 31-373; P0DOX5 223-449 = IgG part).
T6 construct: as m38; also called V3 (e.g. SIRPα3)
Nature of the assay: BLI Octet, antigen-Fc on biosensor.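 Also: antigen captured on the biosensor tip and then immersed in solutions of the test antibodies, which act as the analyte.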

For assay [5], the target named is T7, human SIRPα v4-Fc (SIRPα4 extracellular domain fused to human IGHG1_Fc) (human, UniProt P78324 31-373; P0DOX5 223-449 = IgG part).
T7 construct: as m38; also called V4 (e.g. SIRPα4)
As to the kind of experiment: BLI Octet, antigen-Fc on biosensor.

The target of a further assay is T8, cyno SIRPα-Fc (cynomolgus).
T8 construct: a signal peptide may be part of the entry
As to the kind of experiment: BLI Octet, antigen-Fc on biosensor.

The target in the next assay is T9, human SIRPγ-Fc (human).
T9 construct: a signal peptide may be part of the entry
Nature of the assay: BLI Octet, antigen-Fc on biosensor.

For assay [6], the target named is T10, human SIRPα v6-Fc (SIRPα6 extracellular domain fused to human IGHG1_Fc) (human, UniProt P78324 31-373; P0DOX5 223-449 = IgG part).
T10 construct: as m38; also called V6 (e.g. SIRPα6)
Nature of the assay: BLI Octet, antigen-Fc on biosensor.

In assay [7] the target is T11, human SIRPα v1-Fc (SIRPα1 extracellular domain fused to human IGHG1_Fc) (human, UniProt P78324 31-373; P0DOX5 223-449 = IgG part).
T11 construct: also called V1 (e.g. SIRPα1); SIRPα V1: DLN
As to the kind of experiment: BLI Octet, antigen-Fc on biosensor.

The target in a further assay is T12, FcγR1 (CD64) (human, UniProt P12314 16-374).
T12 construct: whole, on cells
T12 sequence (P12314 16-374): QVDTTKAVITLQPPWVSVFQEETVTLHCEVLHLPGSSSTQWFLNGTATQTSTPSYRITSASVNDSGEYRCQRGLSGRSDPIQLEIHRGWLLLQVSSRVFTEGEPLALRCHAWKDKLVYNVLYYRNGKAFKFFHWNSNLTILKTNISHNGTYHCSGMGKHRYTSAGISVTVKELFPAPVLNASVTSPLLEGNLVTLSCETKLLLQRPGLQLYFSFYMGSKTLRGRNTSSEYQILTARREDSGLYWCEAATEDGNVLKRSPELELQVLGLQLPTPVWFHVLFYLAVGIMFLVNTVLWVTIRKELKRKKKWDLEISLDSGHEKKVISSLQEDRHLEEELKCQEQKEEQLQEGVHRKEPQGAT
As to the kind of experiment: cell binding, FcγR-engineered HEK293 cells.

The next assay has as its target T13, FcγR3A (CD16aV158) (human, UniProt P08637 17-254).
T13 construct: whole, on cells
Nature of the assay: cell binding, FcγR-engineered HEK293 cells.

Another assay concerns the target T14, mouse SIRPα-Fc (mouse).
T14 construct: a signal peptide may be part of the entry; also called Ms; Ms SIRPα-Fc
As to the kind of experiment: BLI Octet, antigen-Fc on biosensor.

T14 sequence (chain, as listed by the source limits assumed): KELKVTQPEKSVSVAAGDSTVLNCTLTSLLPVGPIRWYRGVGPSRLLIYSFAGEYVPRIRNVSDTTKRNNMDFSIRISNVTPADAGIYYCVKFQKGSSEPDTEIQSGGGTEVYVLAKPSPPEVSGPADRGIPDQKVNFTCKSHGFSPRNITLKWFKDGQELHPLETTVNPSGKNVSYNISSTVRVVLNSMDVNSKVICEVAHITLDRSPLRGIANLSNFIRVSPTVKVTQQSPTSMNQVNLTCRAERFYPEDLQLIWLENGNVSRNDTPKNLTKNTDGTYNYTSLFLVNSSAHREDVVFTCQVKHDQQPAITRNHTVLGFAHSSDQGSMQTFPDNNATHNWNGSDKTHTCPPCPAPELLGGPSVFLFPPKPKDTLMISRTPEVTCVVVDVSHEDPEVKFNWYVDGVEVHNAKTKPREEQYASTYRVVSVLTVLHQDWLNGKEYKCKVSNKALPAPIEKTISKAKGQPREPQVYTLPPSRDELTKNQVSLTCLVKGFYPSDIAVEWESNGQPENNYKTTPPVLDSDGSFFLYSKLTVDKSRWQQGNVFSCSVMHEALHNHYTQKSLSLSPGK
T13 sequence (P08637 17-254 F176V): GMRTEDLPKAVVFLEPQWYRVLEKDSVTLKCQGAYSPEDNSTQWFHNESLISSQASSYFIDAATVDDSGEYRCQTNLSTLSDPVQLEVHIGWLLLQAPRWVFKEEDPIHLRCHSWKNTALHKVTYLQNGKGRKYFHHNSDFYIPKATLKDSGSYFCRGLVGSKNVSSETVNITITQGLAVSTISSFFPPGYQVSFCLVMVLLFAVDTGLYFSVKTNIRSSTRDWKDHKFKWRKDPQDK

B1: SIRPAB-7 (antibody, human IgG1, kappa, V domains shown)
VH: QVQLQESGPGLVKPSQTLSLTCTVSGGSISSGEYYWEWIRQHPGKGLEWIGYIYSSGFTYYNPSLKSRVTISVDTSKNQFSLKLSSVTAADTAVYYCAREGLDGSYGSSAWGQGTLVTVSS
VL: DIQLTQSPSSLSASVGDRVTITCQASQDISNYLNWYQQKPGKAPKLLIYDASNLETGVPSRFSGSGSGTDFTFTISSLQPEDIATYYCQQFAYLPYTFGGGTKVEIKR
In the case of B1, the “fold increase over background (100 nM)” value is 2390 fold in assay [1] and 2100 fold with human SIRPα on cells. For the same molecule, the Kd in assay [2] worked out at 13.2 nM; with human SIRPβ-Fc, 2.56 nM; in assay [3], 0.66 nM; in assay [4] it was 10.2 nM; in assay [5] it was 0.95 nM; with cyno SIRPα-Fc it was 4.59 nM. The Kd in the assay with human SIRPγ-Fc was 0.1 nM; in assay [6], 12.2 nM; in assay [7] it was 0.15 nM. In addition, the koff is 0.00956 s⁻¹ in assay [2]; 0.00391 s⁻¹ with human SIRPβ-Fc; 0.00143 s⁻¹ in [3]; 0.00718 s⁻¹ in assay [4]; 0.00165 s⁻¹ in assay [5]; 0.00546 s⁻¹ in the assay with cyno SIRPα-Fc. Besides, the values for the koff (with human SIRPγ-Fc; in [6]; in assay [7]) were 0.0002 s⁻¹, 0.0111 s⁻¹ and 0.000271 s⁻¹, respectively. Besides, the kon in assay [2] was 730000 M⁻¹ s⁻¹; in the assay with human SIRPβ-Fc it was 1.53e+06 M⁻¹ s⁻¹; in [3], 2.17e+06 M⁻¹ s⁻¹; in [4], 702000 M⁻¹ s⁻¹; in assay [5] it was 1.74e+06 M⁻¹ s⁻¹; with cyno SIRPα-Fc it was 1.19e+06 M⁻¹ s⁻¹. In addition, the kon was 1.94e+06 M⁻¹ s⁻¹ with human SIRPγ-Fc, 907000 M⁻¹ s⁻¹ in assay [6] and 1.84e+06 M⁻¹ s⁻¹ in [7].

B2: SIRPAB-11-AAS (antibody, human IgG1, kappa, L234A L235A)
light: DIQMTQSPSSVSASVGDRVTITCRASQGISSWLAWYQQKPGKAPKLLIYAASNLQSGVPSRFSGSGSGTDFTLTISSLQPEDFATYYCQQGASFPITFGGGTKVEIKRTVAAPSVFIFPPSDEQLKSGTASVVCLLNNFYPREAKVQWKVDNALQSGNSQESVTEQDSKDSTYSLSSTLTLSKADYEKHKVYACEVTHQGLSSPVTKSFNRGEC
heavy: QVQLVQSGAEVKKPGASVKVSCKASGYTFRGYGISWVRQAPGQGLEWMGWISAYGGETNYAQKLQGRVTMTTDTSTSTAYMELRSLRSDDTAVYYCAREAGSSWYDFDLWGRGTLVTVSSASTKGPSVFPLAPSSKSTSGGTAALGCLVKDYFPEPVTVSWNSGALTSGVHTFPAVLQSSGLYSLSSVVTVPSSSLGTQTYICNVNHKPSNTKVDKKVEPKSCDKTHTCPPCPAPEAAGGPSVFLFPPKPKDTLMISRTPEVTCVVVSVSHEDPEVKFNWYVDGVEVHNAKTKPREEQYNSTYRVVSVLTVLHQDWLNGKEYKCKVSNKALPAPIEKTISKAKGQPREPQVYTLPPSREEMTKNQVSLTCLVKGFYPSDIAVEWESNGQPENNYKTTPPVLDSDGSFFLYSKLTVDKSRWQQGNVFSCSVMHEALHNHYTQKSLSLSPGK
notes: also called SIRPAB-11-IgG1-AAS
On to B2, for which the values for the EC50 with FcγR1 (CD64) and with FcγR3A (CD16aV158) were 3180 nM and 15100 nM, respectively.

B3: SIRPAB-9 (antibody, human IgG1, kappa, V domains shown)
VH: QVQLVQSGAEVKKPGASVKVSCKASGYTFGGYGISWVRQAPGQGLEWMGWISAYGGETNYAQKLQGRVTMTTDTSTSTAYMELRSLRSDDTAVYYCAREAGSSWYDFDLWGRGTLVTVSS
VL: DIQMTQSPSSVSASVGDRVTITCRASQGISSWLAWYQQKPGKAPKLLIYAASNLQSGVPSRFSGSGSGTDFTLTISSLQPEDFATYYCQQGASFPITFGGGTKVEIKR
B3: the “fold increase over background (100 nM)” value in assay [1] worked out at 2300 fold; with human SIRPα on cells, 2650 fold. Besides, the Kd was 23 nM in [2]; 2.79 nM in the assay with human SIRPβ-Fc; 4.75 nM in assay [3]; 0.53 nM in assay [4]; 7.69 nM in assay [5]; 18.8 nM in the assay with cyno SIRPα-Fc. The Kd with human SIRPγ-Fc stood at 1.37 nM; in assay [6], 1.56 nM; in [7] it was 0.714 nM. In addition, the koff in assay [2] came to 0.0185 s⁻¹; in the assay with human SIRPβ-Fc it was 0.00284 s⁻¹; in [3], 0.00462 s⁻¹; in [4], 0.000515 s⁻¹; in assay [5], 0.00777 s⁻¹; with cyno SIRPα-Fc it was 0.0212 s⁻¹. In addition, the koff worked out at 0.00161 s⁻¹ with human SIRPγ-Fc, 0.00182 s⁻¹ in assay [6] and 0.000757 s⁻¹ in [7]. Besides, the kon was determined as 810000 M⁻¹ s⁻¹ in assay [2]; 1.02e+06 M⁻¹ s⁻¹ in the assay with human SIRPβ-Fc; 970000 M⁻¹ s⁻¹ in assay [3]; 980000 M⁻¹ s⁻¹ in [4]; 1.01e+06 M⁻¹ s⁻¹ in assay [5]; 1.13e+06 M⁻¹ s⁻¹ with cyno SIRPα-Fc. Besides, the figures for the kon (in the assay with human SIRPγ-Fc; in assay [6]; in assay [7]) were 1.17e+06 M⁻¹ s⁻¹, 1.17e+06 M⁻¹ s⁻¹ and 1.06e+06 M⁻¹ s⁻¹, respectively. The binding result with mouse SIRPα-Fc is listed as “no binding”.

B4: SIRPAB-8 (antibody, human IgG1, kappa, V domains shown)
VH: QVQLVQSGAEVKKPGASVKVSCKASGYTFTSYGISWVRQAPGQGLEWMGWISPYNGNTNYAQKLQGRVTMTTDTSTSTAYMELRSLRSDDTAVYYCAREAGSSWYDFDLWGRGTLVTVSS
VL: DIQMTQSPSSVSASVGDRVTITCRASQGISSWLAWYQQKPGKAPKLLIYAASNLQSGVPSRFSGSGSGTDFTLTISSLQPEDFATYYCQQGASFPITFGGGTKVEIKR
As for B4, in assay [1], the “fold increase over background (100 nM)” value is 1020 fold. Also, in the assay with human SIRPα on cells, the “fold increase over background (100 nM)” value was found to be 1310 fold. Moreover, the binding result in [2] is “no binding”. In addition, in assay [4], the Kd amounted to 22.3 nM, the koff was determined as 0.0226 s⁻¹ and the kon worked out at 1.02e+06 M⁻¹ s⁻¹. Also, in the assay with mouse SIRPα-Fc, the binding result is “no binding”.

B5: SIRPAB-10 (antibody, human IgG1, kappa, V domains shown)
VH: QVQLVQSGAEVKKPGASVKVSCKASGYTFTGYPISWVRQAPGQGLEWMGWIYAYGGNTNYAQKLQGRVTMTTDTSTSTAYMELRSLRSDDTAVYYCAREAGSSWYDFDLWGRGTLVTVSS
VL: DIQMTQSPSSVSASVGDRVTITCRASQGISSWLAWYQQKPGKAPKLLIYAASNLQSGVPSRFSGSGSGTDFTLTISSLQPEDFATYYCQQGASFPITFGGGTKVEIKR
Regarding B5, the “fold increase over background (100 nM)” value in assay [1] is 1070 fold; with human SIRPα on cells, 1170 fold. Moreover, the dissociation constant (Kd) in assay [2] came to 1.06 nM; with human SIRPβ-Fc, 0.34 nM; in assay [3] it was 1.58 nM; in assay [4], 0.21 nM; in [5], 1.93 nM; with cyno SIRPα-Fc, 4.89 nM. Further, the Kd in the assay with human SIRPγ-Fc was found to be 0.85 nM; in assay [6], 0.38 nM; in [7], 0.25 nM. The koff in assay [2] came out at 0.00132 s⁻¹; in the assay with human SIRPβ-Fc, 0.000477 s⁻¹; in assay [3], 0.00178 s⁻¹; in [4] it was 0.000261 s⁻¹; in assay [5] it was 0.00267 s⁻¹; with cyno SIRPα-Fc it was 0.00683 s⁻¹. In addition, the koff was 0.00123 s⁻¹ with human SIRPγ-Fc, 0.000491 s⁻¹ in assay [6] and 0.000345 s⁻¹ in [7]. The kon in [2] worked out at 1.25e+06 M⁻¹ s⁻¹; in the assay with human SIRPβ-Fc, 1.4e+06 M⁻¹ s⁻¹; in assay [3], 1.13e+06 M⁻¹ s⁻¹; in assay [4], 1.24e+06 M⁻¹ s⁻¹; in [5] it was 1.38e+06 M⁻¹ s⁻¹; in the assay with cyno SIRPα-Fc, 1.4e+06 M⁻¹ s⁻¹. The results for the kon (in the assay with human SIRPγ-Fc; in assay [6]; in [7]) were 1.45e+06 M⁻¹ s⁻¹, 1.28e+06 M⁻¹ s⁻¹ and 1.4e+06 M⁻¹ s⁻¹, respectively. Further, the binding result with mouse SIRPα-Fc is listed as “no binding”.

(Values after US20200102387A1 (CELGENE, published 2020).)
